Reference: patent publication WO2010047829A1

Target: E1E2 (isolate H77), produced by transfected 293T cells (hepatitis C virus isolate H77 (genotype 1a)) (UniProt P27958)
Assay: cell-based or functional assay

Substance: MAb AR3A (antibody)
- IC50 titer, neutralization of HCVpp-H77: 0.4 µg/mL

Substance: MAb AR3B (antibody)
- IC50 titer, neutralization of HCVpp-H77: 1 µg/mL
